Where a chain is given by its changes, count along the chain named.
Experiments:
Test in all cases: yeast two-hybrid
GIP130a = target: T1, GIP130a (human, UniProt Q4L180 1-1135)
T1 construct: Full length; tested as GAL4 domain fusion in yeast two-hybrid
T1 sequence: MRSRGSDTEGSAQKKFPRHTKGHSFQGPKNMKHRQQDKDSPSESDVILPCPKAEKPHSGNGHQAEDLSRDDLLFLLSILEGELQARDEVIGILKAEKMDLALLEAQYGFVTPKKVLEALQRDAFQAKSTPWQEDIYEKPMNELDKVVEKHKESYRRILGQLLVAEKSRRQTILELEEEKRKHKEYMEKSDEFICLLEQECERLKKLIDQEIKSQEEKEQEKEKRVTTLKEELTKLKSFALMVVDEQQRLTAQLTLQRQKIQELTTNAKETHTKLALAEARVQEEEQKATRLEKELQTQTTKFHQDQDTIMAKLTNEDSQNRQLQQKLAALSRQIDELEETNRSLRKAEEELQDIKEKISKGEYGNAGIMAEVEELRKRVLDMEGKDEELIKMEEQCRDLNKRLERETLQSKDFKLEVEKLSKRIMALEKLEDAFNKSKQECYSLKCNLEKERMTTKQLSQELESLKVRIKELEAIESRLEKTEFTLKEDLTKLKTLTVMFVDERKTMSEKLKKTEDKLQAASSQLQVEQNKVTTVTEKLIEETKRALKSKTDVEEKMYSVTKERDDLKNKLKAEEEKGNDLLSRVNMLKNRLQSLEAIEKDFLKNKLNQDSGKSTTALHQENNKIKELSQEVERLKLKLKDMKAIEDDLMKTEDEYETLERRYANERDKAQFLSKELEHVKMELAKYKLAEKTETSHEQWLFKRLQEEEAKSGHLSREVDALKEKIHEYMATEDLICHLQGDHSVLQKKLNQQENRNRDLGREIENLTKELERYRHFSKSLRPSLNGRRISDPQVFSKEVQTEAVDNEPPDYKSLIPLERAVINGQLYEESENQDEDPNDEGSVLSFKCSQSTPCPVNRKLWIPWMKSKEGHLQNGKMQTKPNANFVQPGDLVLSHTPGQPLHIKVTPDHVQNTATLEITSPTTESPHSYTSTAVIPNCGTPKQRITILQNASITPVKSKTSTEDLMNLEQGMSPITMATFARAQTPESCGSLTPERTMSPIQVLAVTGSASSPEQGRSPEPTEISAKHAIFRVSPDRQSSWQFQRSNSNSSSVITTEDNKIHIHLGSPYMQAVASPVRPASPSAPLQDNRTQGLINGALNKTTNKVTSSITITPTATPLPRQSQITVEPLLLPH

GIP130c = target: T2, GIP130c (human, UniProt Q4L180 1-1128)
T2 construct: Full length; tested as GAL4 domain fusion in yeast two-hybrid
T2 sequence: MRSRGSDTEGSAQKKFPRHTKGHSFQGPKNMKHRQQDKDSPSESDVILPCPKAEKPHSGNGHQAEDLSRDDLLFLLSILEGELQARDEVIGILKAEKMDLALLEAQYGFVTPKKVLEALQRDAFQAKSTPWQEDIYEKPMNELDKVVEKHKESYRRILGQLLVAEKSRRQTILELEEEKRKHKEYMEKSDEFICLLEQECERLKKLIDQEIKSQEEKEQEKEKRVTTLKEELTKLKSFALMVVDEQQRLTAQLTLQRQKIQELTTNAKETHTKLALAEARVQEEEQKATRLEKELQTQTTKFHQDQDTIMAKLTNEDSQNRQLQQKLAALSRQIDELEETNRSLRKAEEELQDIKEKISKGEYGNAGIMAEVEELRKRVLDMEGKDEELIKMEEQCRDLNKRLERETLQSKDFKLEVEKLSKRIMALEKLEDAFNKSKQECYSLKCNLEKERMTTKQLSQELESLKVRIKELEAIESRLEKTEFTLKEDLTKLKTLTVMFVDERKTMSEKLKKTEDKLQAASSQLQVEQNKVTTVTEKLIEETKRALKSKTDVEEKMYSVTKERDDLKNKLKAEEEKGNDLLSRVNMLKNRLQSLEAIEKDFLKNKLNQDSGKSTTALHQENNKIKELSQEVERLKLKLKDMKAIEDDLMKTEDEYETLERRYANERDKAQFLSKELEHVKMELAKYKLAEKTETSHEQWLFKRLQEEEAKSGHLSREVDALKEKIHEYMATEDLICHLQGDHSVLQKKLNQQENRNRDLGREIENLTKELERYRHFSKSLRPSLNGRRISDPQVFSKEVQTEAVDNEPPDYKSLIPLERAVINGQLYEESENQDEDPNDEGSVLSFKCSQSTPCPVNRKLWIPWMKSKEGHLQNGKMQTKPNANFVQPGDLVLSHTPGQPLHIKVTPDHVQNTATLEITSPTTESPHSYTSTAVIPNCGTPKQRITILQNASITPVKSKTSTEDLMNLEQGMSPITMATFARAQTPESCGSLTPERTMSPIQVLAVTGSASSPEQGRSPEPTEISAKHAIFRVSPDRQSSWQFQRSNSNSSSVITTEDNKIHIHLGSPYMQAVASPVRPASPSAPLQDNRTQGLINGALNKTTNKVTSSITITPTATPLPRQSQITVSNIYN

GIP130b = target: T3, GIP130b (human, UniProt Q4L180 1-1128)
T3 construct: Full length; tested as GAL4 domain fusion in yeast two-hybrid
T3 sequence: T2 sequence with R168H

yeast two-hybrid = target: the molecule itself

Measured: binding result

B1: GIP90 (GPBP interacting protein 90 kDa) (other)
chain: MRSRGSDTEGSAQKKFPRHTKGHSFQGPKNMKHRQQDKDSPSESDVILPCPKAEKPHSGNGHQAEDLSRDDLLFLLSILEGELQARDEVIGILKAEKMDLALLEAQYGFVTPKKVLEALQRDAFQAKSTPWQEDIYEKPMNELDKVVEKHKESYRRILGQLLVAEKSRRQTILELEEEKRKHKEYMEKSDEFICLLEQECERLKKLIDQEIKSQEEKEQEKEKRVTTLKEELTKLKSFALMVVDEQQRLTAQLTLQRQKIQELTTNAKETHTKLALAEARVQEEEQKATRLEKELQTQTTKFHQDQDTIMAKLTNEDSQNRQLQQKLAALSRQIDELEETNRSLRKAEEELQDIKEKISKGEYGNAGIMAEVEELRKRVLDMEGKDEELIKMEEQCRDLNKRLERETLQSKDFKLEVEKLSKRIMALEKLEDAFNKSKQECYSLKCNLEKERMTTKQLSQELESLKVRIKELEAIESRLEKTEFTLKEDLTKLKTLTVMFVDERKTMSEKLKKTEDKLQAASSQLQVEQNKVTTVTEKLIEETKRALKSKTDVEEKMYSVTKERDDLKNKLKAEEEKGNDLLSRVNMLKNRLQSLEAIEKDFLKNKLNQDSGKSTTALHQENNKIKELSQEVERLKLKLKDMKAIEDDLMKTEDEYETLERRYANERDKAQFLSKELEHVKMELAKYKLAEKTETSHEQWLFKRLQEEEAKSGHLSREVDALKEKIHEYMATEDLICHLQGDHSVLQKKTKSTRKQEQRFRKRD
notes: Full length; tested as GAL4 domain fusion in yeast two-hybrid/three-hybrid; fusion parts are not written as pieces
binds: all assays above

Reference: patent US20030108554A1 (published 2003)
